Numbering of substitutions follows the chain as printed.
T1: His-tagged recombinant Human TIGIT (human, UniProt Q495A1 22-141)
T1 construct: also called VSIG9; VSTM3; not shown: His tag
T1 sequence (looked up): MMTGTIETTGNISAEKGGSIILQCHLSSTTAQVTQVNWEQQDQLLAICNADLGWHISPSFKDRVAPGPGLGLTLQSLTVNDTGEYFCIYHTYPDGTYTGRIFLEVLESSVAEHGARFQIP

T2: His-tagged recombinant Mouse TIGIT (mouse, UniProt P86176 29-148, limits assumed)
T2 construct: not shown: His tag
T2 sequence (looked up): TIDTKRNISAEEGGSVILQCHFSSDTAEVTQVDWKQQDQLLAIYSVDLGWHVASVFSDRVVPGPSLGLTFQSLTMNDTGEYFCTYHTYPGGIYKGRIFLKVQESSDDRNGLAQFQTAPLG

B1: Ab2 (Fab, V domains shown)
VH: EVQLLESGGGLVQPGGSLRLSCAASGFTFSSYGMNWVRQAPGKGLEWVAGINYSSGNKYYADSVKGRFTISRDNSKNTLYLQMNSLRAEDTAVYYCARGPYASTWLDYWGQGTLVTVSS
VL: not shown
notes: ARG set
B2: Ab78 (Fab, V domains shown)
VH: EVQLLESGGGLVQPGGSLRLSCAASGFTFSSYSMHWVRQAPGKGLEWVASISGSTSSSSYADSVKGRFTISRDNSKNTLYLQMNSLRAEDTAVYYCARVPYDVWMDYWGQGTLVTVSS
VL: not shown
notes: ARV set
B3: Ab93 (Fab, V domains shown)
VH: B2 VH with S33A, H35S, G53S, S56G, S57T, S58I, D102S
VL: not shown
notes: ARV set
B4: Ab187 (Fab, V domains shown)
VH: EVQLLESGGGLVQPGGSLRLSCAASGFTFSSYSMSWVRQAPGKGLEWVASIKSDASTTGYADSVKGRFTISRDNSKNTLYLQMNSLRAEDTAVYYCAREPYSVWLDYWGQGTLVTVSS
VL: not shown
notes: ARE set
B5: Ab170 (Fab, V domains shown)
VH: B2 VH with S30N, S33A, S50Y, S54N, T55A, S56G, S58I, S59Y, D102S, M105L
VL: not shown
notes: ARV set
B6: Ab152 (Fab, V domains shown)
VH: B2 VH with A49T, G53S, S54N, T55A, S56G, S57Y, S58I
VL: not shown
notes: ARV set
B7: Ab4 (Fab, V domains shown)
VH: EVQLLESGGGLVQPGGSLRLSCAASGFTFDSYGMNWVRQAPGKGLEWVASIKYSSGYKYYADSVKGRFTISRDNSKNTLYLQMNSLRAEDTAVYYCARGPYDVWMDYWGQGTLVTVSS
VL: not shown
notes: ARG set
B8: Ab97 (Fab, V domains shown)
VH: B2 VH with S50A, G53S, S54N, S56G, S58I, S59G, M105I
VL: not shown
notes: ARV set
B9: Ab6 (Fab, V domains shown)
VH: B4 VH with S31D, S50R, K52S, D54S, A55S, T57Y, T58K, G59S
VL: not shown
notes: ARE set
B10: Ab68 (Fab, V domains shown)
VH: B2 VH with S50A, S52K, S54N, S56G, S58T, S59Y, D102G
VL: not shown
notes: ARV set
B11: Ab60 (Fab, V domains shown)
VH: B2 VH with A49S, G53S, T55A, S56G, S57Y, S58T, M105L
VL: not shown
notes: ARV set
B12: Ab40 (Fab, V domains shown)
VH: B7 VH with D30S, S50G, Y57N
VL: not shown
notes: ARG set; also called clone Ab40
B13: Ab12 (Fab, V domains shown)
VH: B4 VH with S33A, K52N, D54N, A55G, S56G, T57Y, T58K, G59S, S102G, V103T
VL: not shown
notes: ARE set
B14: Ab193 (Fab, V domains shown)
VH: B4 VH with S33A, A49S, S50A, A55T, T58I, G59Y, V103T
VL: not shown
notes: ARE set
B15: Ab53 (Fab, V domains shown)
VH: B7 VH with D30S, G33S, N35H, Y53S, G56S, Y57N, M105L
VL: not shown
notes: ARG set; also called clone Ab53
B16: Ab38 (Fab, V domains shown)
VH: B4 VH with S33T, S50G, K52W, A55S, S56G, T57N, T58K, E99V, L105I
VL: not shown
notes: ARV set
B17: Ab150 (Fab, V domains shown)
VH: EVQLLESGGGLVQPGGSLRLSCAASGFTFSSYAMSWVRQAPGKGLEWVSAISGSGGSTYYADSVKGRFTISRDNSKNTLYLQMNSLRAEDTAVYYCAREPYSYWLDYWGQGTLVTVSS
VL: DIQMTQSPSSLSASVGDRVTITCRASQSISSYVAWYQQKPGKAPKLLIYVNTSRASGVPSRFSGSGSGTDFTLTISSLQPEDFATYYCQQWYEFNLTFGGGTKVEIK
notes: ARE set
B18: Ab158 (Fab, V domains shown)
VH: B4 VH with S50A, S53G, D54S, S56G, T58S, S102G, V103Y
VL: B17 VL with V50G, R54L, A55Q, W91G, Y92D, F94N, N95P
notes: ARE set
B19: Ab156 (Fab, V domains shown)
VH: B2 VH with S33A, H35S, A49S, S50Y, S54N, T55A, S56G, S57Y, S58I, D102G
VL: B17 VL with V33A, V50G, A55Q, W91Y, Y92S, E93N, F94S, N95P
notes: ARV set
B20: Ab186 (Fab, V domains shown)
VH: B2 VH with G53S, S54N, T55A, S56G, S57Y, M105I
VL: not shown
notes: ARV set
B21: Ab154 (Fab, V domains shown)
VH: B4 VH with S35H, D54N, A55T, S56G, E99V, S102G, V103Y, L105M
VL: not shown
notes: ARV set
B22: Ab199 (Fab, V domains shown)
VH: B2 VH with G53S, T55A, S57T, S59G, D102G, M105I
VL: not shown
notes: ARV set
B23: Ab138 (Fab, V domains shown)
VH: B4 VH with S33A, D54S, A55T, S56G, L105I
VL: not shown
notes: ARE set
B24: Ab188 (Fab, V domains shown)
VH: B2 VH with S52K, G53S, S54N, T55A, S56G, S57T, M105I
VL: not shown
notes: ARV set
B25: Ab183 (Fab, V domains shown)
VH: EVQLLESGGGLVQPGGSLRLSCAASGFTFSSYAMSWVRQAPGKGLEWVSYINSNTGSIGYADSVKGRFTISRDNSKNTLYLQMNSLRAEDTAVYYCAREPYGVWMDYWGQGTLVTVSS
VL: not shown
notes: ARE set
B26: Ab162 (Fab, V domains shown)
VH: B4 VH with S33A, S50A, D54S, T58I, G59Y, L105M
VL: not shown
notes: ARE set
B27: Ab168 (Fab, V domains shown)
VH: B4 VH with S33A, A49S, A55T, T57S, G59Y, V103Y
VL: not shown
notes: ARE set
B28: Ab146 (Fab, V domains shown)
VH: B2 VH with S33A, S54N, T55A, S56G, D102G, M105I
VL: not shown
notes: ARV set
B29: Ab173 (Fab, V domains shown)
VH: B25 VH with Y50S, N52S, S57T, G59S, E99V, V103Y
VL: not shown
notes: ARV set
B30: Ab194 (Fab, V domains shown)
VH: B25 VH with A33S, Y50A, S53G, T55A
VL: not shown
notes: ARE set
B31: Ab137 (Fab, V domains shown)
VH: B2 VH with S52K, S54N, S56G, S58I, V103Y, M105I
VL: not shown
notes: ARV set
B32: Ab140 (Fab, V domains shown)
VH: B25 VH with S49A, Y50S, G102S, V103Y, M105L
VL: not shown
notes: ARE set

Target: T1, His-tagged recombinant Human TIGIT
Test: ELISA, coated His-tagged human TIGIT
Protocol: (§1) Binding affinities for antigen binding to anti-TIGIT monoclonal antibodies were determined by ELISA. […] Antibodies to be tested were diluted to 1 μM in PBS buffer containing 1% BSA and diluted 3-fold in a 10-point curve. […] Detection of the secondary antibody was determined using streptavidin-HRP and TMB reagent. All assays were performed at room temperature. Curve-fitting software was used to determine the EC₅₀ for each antibody.

EC50 [nM]	Binder
15.7	B1
119	B2
122	B3
6.2	B4
138	B5
27.1	B6
1.2	B7
289	B8
25.4	B9
639	B10
79.8	B11
0.3	B12
27.7	B13
4.6	B14
4.3	B15
45.5	B16

Target: T2, His-tagged recombinant Mouse TIGIT
Test: ELISA, coated His-tagged mouse TIGIT
Protocol: as §1

EC50 [nM]	Binder
0.7	B17
156	B18
164	B19
429	B20
122	B21
81	B22
58.6	B23
40.3	B24
110	B25
20.4	B26
253	B27
7.8	B28
64.9	B29
70.6	B30
84.9	B31
173	B32

From US20200339678A1 (RIGEL PHARMACEUTICALS, published 2020)
